Results as given in patent publication US20190359712A1 (Daiichi Sankyo, published 2019).

T1: recombinant human TROP-2/human IgG Fc fused form (R&D Systems, Inc.) (human, UniProt P09758 27-274, limits assumed)
T1 construct: Bought reagent; also called TROP-2/Fc; not shown: human IgG Fc
T1 sequence (looked up): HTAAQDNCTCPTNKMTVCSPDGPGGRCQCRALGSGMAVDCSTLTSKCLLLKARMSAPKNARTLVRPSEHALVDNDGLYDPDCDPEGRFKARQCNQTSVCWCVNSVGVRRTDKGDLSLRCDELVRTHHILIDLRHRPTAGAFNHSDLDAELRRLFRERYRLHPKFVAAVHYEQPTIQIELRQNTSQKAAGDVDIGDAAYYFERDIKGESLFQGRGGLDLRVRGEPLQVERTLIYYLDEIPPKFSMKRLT

T2: human CD3εγ single-chain antigen (human)
T2 construct: also called scCD3εγ; His-scCD3 antigen
T2 chain: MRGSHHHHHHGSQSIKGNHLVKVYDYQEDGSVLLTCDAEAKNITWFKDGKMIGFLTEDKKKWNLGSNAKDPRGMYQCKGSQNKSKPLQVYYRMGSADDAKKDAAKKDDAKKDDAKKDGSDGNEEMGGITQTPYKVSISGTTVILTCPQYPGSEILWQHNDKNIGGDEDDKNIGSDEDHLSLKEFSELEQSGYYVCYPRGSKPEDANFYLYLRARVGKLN

T3: human TROP2 on FaDu and HPAF-II cells (human, UniProt P09758 27-323)
T3 construct: whole, on cells
T3 sequence (looked up): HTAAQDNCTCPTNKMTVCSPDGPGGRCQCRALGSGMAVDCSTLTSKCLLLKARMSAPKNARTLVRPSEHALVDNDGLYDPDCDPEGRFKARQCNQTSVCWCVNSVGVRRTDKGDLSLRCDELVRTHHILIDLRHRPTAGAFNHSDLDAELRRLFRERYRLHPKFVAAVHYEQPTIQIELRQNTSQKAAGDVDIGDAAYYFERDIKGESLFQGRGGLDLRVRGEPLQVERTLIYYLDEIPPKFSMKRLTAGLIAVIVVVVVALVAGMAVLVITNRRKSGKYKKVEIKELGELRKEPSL


What was measured:
[1] = target: T4, human CD3εδ expressed on transfected Lenti-X293T cells (human, UniProt P07766 23-207; P04234 22-171); test: flow cytometry, hybridoma supernatant on hCD3ε/hCD3δ-transfected Lenti-X293T cells
T4 construct: Cells co-transfected with hCD3ε-pcDNA3.1 and hCD3δ-pcDNA3.1
Method: On the next day, hCD3ε-pcDNA3.1 and hCD3δ-pcDNA3.1 or a control pcDNA3.1-DEST was transfected to the Lenti-X293T cells using Lipofectamine 2000, and the cells were further cultured overnight at 37° C. under 5% CO₂ conditions. On the next day, the expression vector-transfected Lenti-X293T cells were treated with TrypLE Express (Thermo Fisher Scientific Inc.), washed with DMEM containing 10% FBS, and then adjusted to a concentration of 5×10⁶ cells/mL in PBS containing 5% FBS. The resulting cell suspension was used in flow cytometry analysis.
The hCD3δ-pcDNA3.1- and hCD3δ-pcDNA3.1-transfected Lenti-X293T cells or the pcDNA3.1-DEST-transfected Lenti-X293T cells were suspended by the addition of the hybridoma culture supernatant and left standing at 4° C. for 1 hour. The cells were washed once with PBS containing 5% FBS, then suspended by the addition of Anti-Rat IgG FITC conjugate (Sigma-Aldrich Corp.) diluted 500-fold with PBS containing 5% FBS, and left standing at 4° C. for 30 minutes. The cells were washed twice with PBS containing 5% FBS and then resuspended in PBS containing 5% FBS and 2 μg/ml 7-aminoactinomycin D (Molecular Probes, Inc.), followed by detection using a flow cytometer. The data was analyzed using Flowjo. After removal of 7-aminoactinomycin D-positive dead cells by gating, the FITC fluorescence intensity of live cells was plotted to a histogram.

[2] = target: T5, cynomolgus monkey CD3 on cynomolgus monkey PBMC or T cell line HSC-F (cynomolgus monkey, UniProt Q95LI5 22-198); test: flow cytometry, hybridoma supernatant on cynomolgus monkey T cell line HSC-F
T5 construct: whole, on cells; Native CD3 complex on monkey T cells; also called cynomolgus monkey CD3 (PBMC); cynomolgus monkey CD3 antigen
T5 sequence (Q95LI5 22-198): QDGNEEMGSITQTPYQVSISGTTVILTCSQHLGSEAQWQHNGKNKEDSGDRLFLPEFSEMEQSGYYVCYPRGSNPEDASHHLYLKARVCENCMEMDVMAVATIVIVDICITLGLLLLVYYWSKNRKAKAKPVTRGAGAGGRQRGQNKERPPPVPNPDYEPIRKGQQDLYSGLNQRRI
Method: A cynomolgus monkey T cell line HSC-F (JCRB Cell Bank, No. JCRB1164) was adjusted to a concentration of 5×10⁶ cells/mL in an RPMI1640 medium containing FBS and added at a concentration of 100 μL/well to a 96-well plate. […] Then, the supernatant was removed, and the cells in the wells were washed once with PBS containing 5% FBS, then suspended by the addition of Anti-Rat IgG FITC conjugate diluted 500-fold with PBS containing 5% FBS, and left standing at 4° C. for 1 hour. The cells were washed three times with PBS containing 5% FBS and then resuspended in PBS containing 5% FBS and 2 μg/ml 7-aminoactinomycin D, followed by detection using a flow cytometer. The data was analyzed using Flowjo. After removal of 7-aminoactinomycin D-positive dead cells by gating, the FITC fluorescence intensity of live cells was plotted to a histogram.

[3] = target: T1, recombinant human TROP-2/human IgG Fc …; test: SPR (BIAcore 3000), TROP-2/Fc captured on anti-human IgG(Fc), bispecific as analyte, 1:1 binding model
Method: The bispecific molecule was assayed for its binding to TROP2 using BIAcore 3000 (GE Healthcare Bio-Sciences Corp.) by the capture method, which involves capturing the antigen by an anti-human IgG antibody and assaying the bispecific molecule as an analyte. The antigen used was recombinant human TROP-2/human IgG Fc fused form (R&D Systems, Inc.). Approximately 2000 RU of the anti-human IgG(Fc) antibody (Human Antibody Capture Kit, GE Healthcare Bio-Sciences Corp.) was covalently bound to a sensor chip CM5 (GE Healthcare Bio-Sciences Corp.) by the amine coupling method. Similarly, this antibody was immobilized onto a reference cell. The running buffer used was HBS-P (10 mM HEPES (pH 7.4), 0.15 M NaCl, and 0.005% Surfactant P20). The bispecific molecule was prepared at a 2-fold dilution ratio from 200 nM to 1 nM. A 1 μg/ml solution of the antigen was added onto the anti-human IgG(Fc) antibody-immobilized chip for approximately […]. Then, each concentration of the bispecific molecule was added at a flow rate of 30 μl/min for 300 seconds. Subsequently, the dissociation phase was monitored for 600 seconds. A 3 M magnesium chloride solution was added as a regenerating solution for 30 seconds. The data was analyzed using the 1:1 binding model of analytical software (BIAevaluation software, version 4.1.1) to calculate an association rate constant (ka), a dissociation rate constant (kd), and a dissociation constant (KD; KD=kd/ka).

human CD3 on human PBMC = target: T6, human CD3 on human PBMC (human, UniProt P07766 23-207); test: flow cytometry on human PBMC (dead cells and CD19-positive cells excluded), Penta-His Alexa Fluor 488 detection, rMFI
T6 construct: Native CD3 complex on T cells in PBMC; the other chains of the complex are native; also called human CD3 (PBMC)

[4] = target: T2, human CD3εγ single-chain antigen; test: SPR (BIAcore 3000), human CD3εγ single-chain antigen immobilized, bispecific as analyte; KD from the amount bound at each concentration
Method: The bispecific molecule was assayed for its binding to the CD3εγ antigen using BIAcore 3000 (GE Healthcare Bio-Sciences Corp.) by a method which involves immobilizing the antigen and assaying the antibody as an analyte. […] Approximately 100 RU of the antigen was covalently bound to a sensor chip CM5 (GE Healthcare Bio-Sciences Corp.) by the amine coupling method. Immobilization treatment was performed without the addition of an antigenic protein as a reference cell. […] The bispecific molecule was prepared at a 2-fold dilution ratio from 1 μM (highest concentration) to 4 nM or at a 2-fold dilution ration from 200 nM to 1 nM. Each concentration of the bispecific molecule was added to the antigen-immobilized chip at a flow rate of […] for 25 minutes, and the amount of the bispecific molecule bound thereto was monitored. A 10 mM glycine-hydrochloric acid solution (pH 1.5) was added as a regenerating solution for 30 seconds. The data was analyzed using analytical software (BIAevaluation software, version 4.1.1) to calculate a dissociation constant KD from the amount of the bispecific molecule bound at each concentration.

[5] = target: T5, cynomolgus monkey CD3 on cynomolgus …; test: flow cytometry on cynomolgus monkey PBMC, Penta-His Alexa Fluor 488 detection, rMFI
[6] = target: T3, human TROP2 on FaDu and HPAF-II cells; test: flow cytometry on FaDu and HPAF-II cells, Penta-His Alexa Fluor 488 detection (rMFI)
Method: The cells were washed twice with PBS containing 5% FBS, then adjusted to a concentration of 1×10⁶ cells/mL with PBS containing 5% FBS, added at a concentration of 100 μL/well to a 96-well U-bottomed microplate, and centrifuged to remove a supernatant. […] The cells were washed twice with PBS containing 5% FBS.

[7] = target: T3, human TROP2 on FaDu and HPAF-II cells; test: flow cytometry on HPAF-II cells, Penta-His Alexa Fluor 488 detection, rMFI

| Binder | Kd [3] | EC50 (read off the curve) (human CD3 on human PBMC) | Kd [4] | binding result [5] | further results |
| --- | --- | --- | --- | --- | --- |
| rat anti-CD3 monoclonal antibody C3-147 (antibody, IgG2b, V domains shown, probably lambda; also called rat anti-human CD3 antibody) VH: EVQLVESGGGLVQPGRALKLSCVVSGVTFNYYGMSWIRQAPGKGLEWVASITNSGGRIYYPDSVKGRFTISRENTQKTLYLQMNSLRSEDTATYYCTLDGRDGWVAYWGQGTLVTVSS VL: QFVLTQPNSVSTNLGTTVELSCKRNTGNIGSNYVNWYQQHEGRSPTTIIYRDDKRPDGVSDRFSGSIDRSSKSALLTINNVQTEDEADYFCQSYSSGFIFGGGTKLTVL |  |  |  |  | binding result [1]: binds; binding result [2]: binds |
| T2C-0001 (HT1-11 scFv/C3E-7034 bispecific molecule) (bispecific antibody, Tandem scFv; also called anti-TROP2-CD3 bispecific molecule) GQVQLVQSGAEVKKPGASVKVSCKASGYTFTTAGMQWVRQAPGQGLEWMGWINTHSGVPKYAEDFKGRVTISADTSTSTAYLQLSSLKSEDTAVYYCARSGFGSSYWYFDVWGQGTLVTVSSGGGGSGGGGSGGGGSDIQMTQSPSSLSASVGDRVTITCKASQDVSTAVAWYQQKPGKAPKLLIYSASYRYTGVPSRFSGSGSGTDFTLTISSLQPEDFAVYYCQQHYITPLTFGQGTKLEIKRTGGGGSEVQLVESGGGLVQPGGSLRLSCAASGVTFNYYGMSWIRQAPGKGLEWVASITNSGGRIYYPDSVKGRFTISRENTQKTLYLQMNSLRAEDTAVYYCTLDGRDGWVAYWGQGTLVTVSSGGGGSGGGGSGGGGSNFMLTQPHSVSESPGKTVTISCKRNTGNIGSNYVNWYQQHEGSSPTTIIYRDDKRPDGVSDRFSGSIDRSSKSASLTISNLKTEDEADYFCQSYSSGFIFGGGTKLTVLGAAAGAGGDYKDDDDKGAAAHHHHHH | 12.8 nM | ~1 nM | 13.9 nM | binds |  |
| HT1-11 scFv (humanized anti-TROP2 scFv) (scFv, The scFv was detected through its His tag) scFv: QVQLVQSGAEVKKPGASVKVSCKASGYTFTTAGMQWVRQAPGQGLEWMGWINTHSGVPKYAEDFKGRVTISADTSTSTAYLQLSSLKSEDTAVYYCARSGFGSSYWYFDVWGQGTLVTVSSGGGGSGGGGSGGGGSDIQMTQSPSSLSASVGDRVTITCKASQDVSTAVAWYQQKPGKAPKLLIYSASYRYTGVPSRFSGSGSGTDFTLTISSLQPEDFAVYYCQQHYITPLTFGQGTKLEIKRTGAAAHHHHHH |  |  |  |  | binding result [6]: binds |
| T2C-0005 (HT1-11 scFv/C3E-7035 bispecific molecule) (bispecific antibody, Tandem scFv; also called anti-TROP2-CD3 bispecific molecule) GQVQLVQSGAEVKKPGASVKVSCKASGYTFTTAGMQWVRQAPGQGLEWMGWINTHSGVPKYAEDFKGRVTISADTSTSTAYLQLSSLKSEDTAVYYCARSGFGSSYWYFDVWGQGTLVTVSSGGGGSGGGGSGGGGSDIQMTQSPSSLSASVGDRVTITCKASQDVSTAVAWYQQKPGKAPKLLIYSASYRYTGVPSRFSGSGSGTDFTLTISSLQPEDFAVYYCQQHYITPLTFGQGTKLEIKRTGGGGSEVQLVESGGGLVQPGGSLRLSCAASGVTFNYYGMSWIRQAPGKGLEWVASITNSGGRIYYPDSVKGRFTISRENTQKTLYLQMNSLRAEDTAVYYCTLDGRDGWVAYWGQGTLVTVSSGGGGSGGGGSGGGGSMAQAVLTQPSSVSGVPGQRVTISCKRNTGNIGSNYVNWYQQLPGTAPKLLIYRDDKRPSGVPDRFSGSKSGTSASLAITGFQAEDEADYYCQSYSSGFIFGGGTKLTVLGAAAGAGGDYKDDDDKGAAAHHHHHH | 11.9 nM | ~10 nM | 126 nM | binds | EC50 (read off the curve) [7]: ~10 nM |
| T2C-0006 (HT1-11 scFv/C3E-7036 bispecific molecule) (bispecific antibody, Tandem scFv; also called anti-TROP2-CD3 bispecific molecule) GQVQLVQSGAEVKKPGASVKVSCKASGYTFTTAGMQWVRQAPGQGLEWMGWINTHSGVPKYAEDFKGRVTISADTSTSTAYLQLSSLKSEDTAVYYCARSGFGSSYWYFDVWGQGTLVTVSSGGGGSGGGGSGGGGSDIQMTQSPSSLSASVGDRVTITCKASQDVSTAVAWYQQKPGKAPKLLIYSASYRYTGVPSRFSGSGSGTDFTLTISSLQPEDFAVYYCQQHYITPLTFGQGTKLEIKRTGGGGSEVQLVESGGGLVQPGGSLRLSCAASGVTFNYYGMSWIRQAPGKGLEWVASITNSGGRIYYPDSVKGRFTISRENTQKTLYLQMNSLRAEDTAVYYCTLDGRDGWVAYWGQGTLVTVSSGGGGSGGGGSGGGGSNFMLTQPSSVSGVPGQRVTISCTGNTGNIGSNYVNWYQQLPGTAPKLLIYRDDKRPSGVPDRFSGSKSGTSASLAITGFQAEDEADYYCQSYSSGFIFGGGTKLTVLGAAAGAGGDYKDDDDKGAAAHHHHHH | 9.3 nM |  |  | binds | binding result (human CD3 on human PBMC): binds |
